First the molecules themselves.
B1: C22orf15 (parent)
chain: ITQSWQVSVRVQPRGRAHLLPNPY
B2: ZNF449 (parent)
chain: HTGERPYECTVCKKRFTRRSHLIG
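Also: lentivirally expressed fusions sorted by FACS into six bins by GFP to DsRed ratio, PSI derived from sequencing read proportions per bin multiplied by bin number.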

The variants in one data set derive from B1. Description: protein stability index of a GFP-peptide fusion (GPS, HEK-293T) (PSI 1-6); higher = more stable. As to conditions: c terminus: a fixed tail appended.
Regarding ITQSWQVSVRVQPRGRAHTLPNPY [L19T], the protein stability index came to 2.62.
The same measure, in the same setting: the value for ITQSWQVSVRVQPRGRAHALPNPY [L19A] was 2.42; that for ITQSWQVSVRFQPRGRAHLLPNPY [V11F] was 1.69.
Same read-out and setting: the value for ITQSWQVNVRVQPRGRAHLLPNPY [S8N] was 1.46.
On to ITQSWQVAVRVQPRGRAHLLPNPY [S8A], for which the protein stability index turned out to be 1.27.
Still for that read-out and setting: the value for ITQSWQVSLRVQPRGRAHLLPNPY [V9L] was 2.7; that for ITQSWQVSTRVQPRGRAHLLPNPY [V9T] was 1.55; that for ITQSWQVSERVQPRGRAHLLPNPY [V9E] was 2.26.
On the same count and under the same terms, as for IYQSWQVSVRVQPRGRAHLLPNPY [T2Y], the figure is 3.42; as for ITQSEQVSVRVQPRGRAHLLPNPY [W5E], 2.97; as for ITQSWQVSVRVQPRGRAHLLDNPY [P21D], 1.56.
The same measure, in the same setting: the value for ITQSWQVSVRVQPRGRAHLLGNPY [P21G] was 1.76.
As to ITQSWQVSVRVQMRGRAHLLPNPY [P13M], the protein stability index is 1.91.
On the same count and under the same terms, as for ITQSWQVSVRVQPRKRAHLLPNPY [G15K], the figure is 2.31.
Still for that read-out and setting: as for ITQSWQCSVRVQPRGRAHLLPNPY [V7C], the figure is 1.6.
Same read-out and setting: as for ITQSWQYSVRVQPRGRAHLLPNPY [V7Y], the figure is 1.86; as for ITQSWQVSVRVQPRGRASLLPNPY [H18S], 1.43.
ITQSWQVSVRVQPRGRAHLLPNFY [P23F]: the protein stability index amounted to 3.34.
On the same count and under the same terms, the value for ITDSWQVSVRVQPRGRAHLLPNPY [Q3D] was 1.47; that for YTQSWQVSVRVQPRGRAHLLPNPY [I1Y] was 3.3.

The next data set covers variants of B2. The data set is described as above. The conditions noted are these: c terminus: a fixed tail appended.
Turning to HTWERPYECTVCKKRFTRRSHLIG [G3W], the protein stability index stood at 2.43.
Still for that read-out and setting: as for HTPERPYECTVCKKRFTRRSHLIG [G3P], the figure is 2.52.
Still for that read-out and setting: as for HTEERPYECTVCKKRFTRRSHLIG [G3E], the figure is 2.26; as for HTHERPYECTVCKKRFTRRSHLIG [G3H], 3.28; as for HTMERPYECTVCKKRFTRRSHLIG [G3M], 2.38.
Same read-out and setting: as for HTGERPYECTVCKWRFTRRSHLIG [K14W], the figure is 1.49; as for HTGERPYECTVCKARFTRRSHLIG [K14A], 1.89.
As for HTGERPYECTVCKSRFTRRSHLIG [K14S], the protein stability index was 2.27.
For HTGERPYECTVCKCRFTRRSHLIG [K14C], the protein stability index is 2.01.
As to HTGERPYECTVCKLRFTRRSHLIG [K14L], the protein stability index stood at 1.66.
The same measure, in the same setting: as for HTGERPYECTVCKGRFTRRSHLIG [K14G], the figure is 1.44; as for HTGEKPYECTVCKKRFTRRSHLIG [R5K], 1.99.
Same read-out and setting: the value for HTGEFPYECTVCKKRFTRRSHLIG [R5F] was 1.76.
Regarding HTGEVPYECTVCKKRFTRRSHLIG [R5V], the protein stability index amounted to 2.07.
The same measure, in the same setting: as for HTGEMPYECTVCKKRFTRRSHLIG [R5M], the figure is 2.24; as for HTGEGPYECTVCKKRFTRRSHLIG [R5G], 2.24; as for HTGEPPYECTVCKKRFTRRSHLIG [R5P], 2.01.
The same measure, in the same setting: as for HTGENPYECTVCKKRFTRRSHLIG [R5N], the figure is 1.64.
Turning to HTGFRPYECTVCKKRFTRRSHLIG [E4F], the protein stability index was 1.9.
For HTGIRPYECTVCKKRFTRRSHLIG [E4I], the protein stability index was 1.66.
Same read-out and setting: as for HTGARPYECTVCKKRFTRRSHLIG [E4A], the figure is 1.42.
Still for that read-out and setting: the value for HTGGRPYECTVCKKRFTRRSHLIG [E4G] was 1.55.
The same measure, in the same setting: as for HTGMRPYECTVCKKRFTRRSHLIG [E4M], the figure is 2.24.
In the case of HTGTRPYECTVCKKRFTRRSHLIG [E4T], the protein stability index came out at 2.76.
The same measure, in the same setting: the value for HTGQRPYECTVCKKRFTRRSHLIG [E4Q] was 2.66.
Still for that read-out and setting: as for HTGCRPYECTVCKKRFTRRSHLIG [E4C], the figure is 2.26; as for HTGERQYECTVCKKRFTRRSHLIG [P6Q], 3.29; as for HTGERDYECTVCKKRFTRRSHLIG [P6D], 2.52.
Same read-out and setting: the value for HTGERAYECTVCKKRFTRRSHLIG [P6A] was 2.67; that for HTGERFYECTVCKKRFTRRSHLIG [P6F] was 1.75; that for HTGERVYECTVCKKRFTRRSHLIG [P6V] was 3.36.
Take HTGERYYECTVCKKRFTRRSHLIG [P6Y]: the protein stability index came out at 2.22.
Take HTGEREYECTVCKKRFTRRSHLIG [P6E]: the protein stability index was determined as 2.34.
As to HTGERPYECTVCKKRQTRRSHLIG [F16Q], the protein stability index was found to be 2.4.
Take HTGERPYECTVCKKRHTRRSHLIG [F16H]: the protein stability index was found to be 3.32.
In the case of HTGERPYECTVCKKRDTRRSHLIG [F16D], the protein stability index was determined as 3.
With HTGERPYECTVCKKRSTRRSHLIG [F16S], the protein stability index was 2.51.
Consider HTGERPYECTVCKKRLTRRSHLIG [F16L], for which the protein stability index is 1.67.
On the same count and under the same terms, the value for HTGERPYECTVCKKRFTRHSHLIG [R19H] was 1.96.
Same read-out and setting: as for HTGERPYECTVCKKRFTRLSHLIG [R19L], the figure is 1.53; as for HTGERPYECTVCKKRFTRASHLIG [R19A], 1.71; as for HTGERPYECTVCKKRFTRKSHLIG [R19K], 2.54.
On the same count and under the same terms, as for HTGERPYECTVCKKRFTRDSHLIG [R19D], the figure is 1.62; as for HTGERPYECTVCKKNFTRRSHLIG [R15N], 2.58; as for HTGERPYECTVCKKSFTRRSHLIG [R15S], 1.52.
As to HTGERPYECTVCKKAFTRRSHLIG [R15A], the protein stability index was found to be 1.99.
Still for that read-out and setting: as for HTGERPYECTVCKKDFTRRSHLIG [R15D], the figure is 2.09.
Take HTGERPYECTVCKKFFTRRSHLIG [R15F]: the protein stability index is 1.72.
Same read-out and setting: as for HTGERPYECTVCKKMFTRRSHLIG [R15M], the figure is 2.51.
For the variant HTGERPYECTVCKKHFTRRSHLIG [R15H], the protein stability index came to 3.03.
Still for that read-out and setting: the value for HTGERPYECTVCKKKFTRRSHLIG [R15K] was 2.52; that for HTGERPYECTVCKKIFTRRSHLIG [R15I] was 2.1.
Take HTGERPYECTVCKKYFTRRSHLIG [R15Y]: the protein stability index amounted to 1.09.
Same read-out and setting: as for HTGERPYECTVCKKLFTRRSHLIG [R15L], the figure is 1.39; as for HTGERPYECTVCKKVFTRRSHLIG [R15V], 2.16.
Still for that read-out and setting: the value for HTGERPYECTVCKKTFTRRSHLIG [R15T] was 2.52.
With HTGERPYECTPCKKRFTRRSHLIG [V11P], the protein stability index was 2.58.
As for HTGERPYECTECKKRFTRRSHLIG [V11E], the protein stability index turned out to be 3.06.
With HTGERPYECTMCKKRFTRRSHLIG [V11M], the protein stability index came to 1.91.
The same measure, in the same setting: the value for HTGERPYECTICKKRFTRRSHLIG [V11I] was 1.58; that for HTGERPYECTSCKKRFTRRSHLIG [V11S] was 2.58; that for HTGERPYECTQCKKRFTRRSHLIG [V11Q] was 3.12.
The same measure, in the same setting: as for HTGERPYECTTCKKRFTRRSHLIG [V11T], the figure is 3.47.
For the variant HTGERPYECTYCKKRFTRRSHLIG [V11Y], the protein stability index was 2.64.
As to HTGERPYECTVCKKRFTRRSHHIG [L22H], the protein stability index was determined as 3.
On the same count and under the same terms, the value for HTGERPYECTVCKKRFTRRSHRIG [L22R] was 3.15; that for HTGERPYECTVCKKRFTRRSHEIG [L22E] was 3.43.
The same measure, in the same setting: the value for HTGERPYECTVCKKRFTRRSHCIG [L22C] was 3.46; that for HTGERPYECTVCKKRFTRRSHVIG [L22V] was 3.02.
Still for that read-out and setting: the value for HTGERPYECTVCKKRFTRRSHFIG [L22F] was 1.3; that for HTGERPYECTVCKKRFTRRSHQIG [L22Q] was 2.58.
On to HTGERPYECTVCKKRFTRRSHKIG [L22K], for which the protein stability index worked out at 2.35.
The same measure, in the same setting: as for HTGERPYECTVKKKRFTRRSHLIG [C12K], the figure is 3.98; as for HTGERPYECTVPKKRFTRRSHLIG [C12P], 3.06.
